The assay addresses T1, Flag-TGF-β1WT (UniProt P04202 30-390).
T1 construct: TGF-β1 expressed from PCMV6-TGF-β1-Flag, constructed from the Origene plasmid PCMV6-TGF-β1-Myc-Flag (MR227339); Origene MR clones are mouse ORF clones as far as I recall; the printed sites T282 and K315 fit the precursor numbering of mouse and human TGF-β1; In cells the protein may be phosphorylated (T282) and ubiquitinated (K315); also called PCMV6-TGF-β1-Flag; source: HEK293T, transfected, in …
Description: pull-down; about 1 µg His-CHIP bound to His beads mixed with 1 µg Flag-TGF-β1WT or Flag-TGF-β1T282A, 4 °C overnight, washed three times with cell lysis buffer, immunoblot. To be noted: both partners purified.

The values that follow come from paper PMC9198048, “Ursodeoxycholic acid reduces antitumor immunosuppression by inducing CHIP-mediated TGF-β degradation” (Nature Communications, 2022).

T1 sequence (P04202 30-390): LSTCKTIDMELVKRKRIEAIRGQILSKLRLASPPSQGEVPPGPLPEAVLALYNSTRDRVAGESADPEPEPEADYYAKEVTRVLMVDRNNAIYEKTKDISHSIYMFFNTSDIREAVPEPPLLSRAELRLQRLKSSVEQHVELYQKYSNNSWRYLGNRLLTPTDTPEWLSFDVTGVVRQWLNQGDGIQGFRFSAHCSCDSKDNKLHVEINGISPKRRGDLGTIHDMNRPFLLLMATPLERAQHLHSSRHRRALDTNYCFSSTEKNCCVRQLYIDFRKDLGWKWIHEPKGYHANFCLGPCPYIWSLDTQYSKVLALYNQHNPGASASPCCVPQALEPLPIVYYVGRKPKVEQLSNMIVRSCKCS

B1: His-CHIP (enzyme, UniProt Q9WUD1 1-304, looked up)
chain: MKGKEEKEGGARLGTGGGGSPDKSPSAQELKEQGNRLFVGRKYPEAAACYGRAITRNPLVAVYYTNRALCYLKMQQPEQALADCRRALELDGQSVKAHFFLGQCQLEMESYDEAIANLQRAYSLAKEQRLNFGDDIPSALRIAKKKRWNSIEERRIHQESELHSYLTRLIAAERERELEECQRNHEGHEDDGHIRAQQACIEAKHDKYMADMDELFSQVDEKRKKRDIPDYLCGKISFELMREPCITPSGITYDRKDIEEHLQRVGHFDPVTRSPLTQEQLIPNLAMKEVIDAFISENGWVEDY
notes: also called PCMV6-CHIP-His
Take B1: the binding result is “binds”.
